Legend:
[1] = target: Activin A (homodimer of two inhibin βA subunits; R&D Systems, #338-AC) (human) (UniProt P08476); experiment: SPR blocking: 5 nM Activin A + 3.75 nM binder over Follistatin-288 surface
[2] = target: Activin A (homodimer of two inhibin βA subunits; R&D Systems, #338-AC) (human) (UniProt P08476); experiment: SPR blocking: 5 nM Activin A + 30 nM binder over Follistatin-288 surface
[3] = target: Activin A (homodimer of two inhibin βA subunits; R&D Systems, #338-AC) (human) (UniProt P08476); experiment: SPR blocking: 5 nM Activin A + 7.50 nM binder over hActRIIB-hFc (Control 4) surface
[4] = target: Activin A (homodimer of two inhibin βA subunits; R&D Systems, #338-AC) (human) (UniProt P08476); experiment: SPR blocking: 5 nM Activin A + 0 nM binder over Follistatin-288 surface
[5] = target: Activin A (homodimer of two inhibin βA subunits; R&D Systems, #338-AC) (human) (UniProt P08476); experiment: SPR blocking: 5 nM Activin A + 7.5 nM binder over Follistatin-288 surface
[6] = target: Activin A (homodimer of two inhibin βA subunits; R&D Systems, #338-AC) (human) (UniProt P08476); experiment: SPR blocking: 5 nM Activin A + 0.00 nM binder over hActRIIB-hFc (Control 4) surface
[7] = target: Activin A (homodimer of two inhibin βA subunits; R&D Systems, #338-AC) (human) (UniProt P08476); experiment: SPR blocking: 5 nM Activin A + 30 nM binder over hActRIIB-hFc (Control 4) surface
[8] = target: Activin A (homodimer of two inhibin βA subunits; R&D Systems, #338-AC) (human) (UniProt P08476); experiment: SPR blocking: 5 nM Activin A + 60 nM binder over Follistatin-288 surface
[9] = target: Activin A (homodimer of two inhibin βA subunits; R&D Systems, #338-AC) (human) (UniProt P08476); experiment: SPR blocking: 5 nM Activin A + 15 nM binder over Follistatin-288 surface
[10] = target: Activin A (homodimer of two inhibin βA subunits; R&D Systems, #338-AC) (human) (UniProt P08476); experiment: SPR blocking: 5 nM Activin A + 15 nM binder over hActRIIA-hFc surface
[11] = target: Activin A (homodimer of two inhibin βA subunits; R&D Systems, #338-AC) (human) (UniProt P08476); experiment: SPR blocking: 5 nM Activin A + 30 nM binder over hActRIIA-hFc surface
[12] = target: Activin A (homodimer of two inhibin βA subunits; R&D Systems, #338-AC) (human) (UniProt P08476); experiment: SPR blocking: 5 nM Activin A + 0.94 nM binder over hActRIIA-hFc surface
[13] = target: Activin A (homodimer of two inhibin βA subunits; R&D Systems, #338-AC) (human) (UniProt P08476); experiment: SPR blocking: 5 nM Activin A + 3.75 nM binder over hActRIIA-hFc surface
[14] = target: Activin A (homodimer of two inhibin βA subunits; R&D Systems, #338-AC) (human) (UniProt P08476); experiment: SPR blocking: 5 nM Activin A + 3.75 nM binder over hActRIIB-hFc (Control 4) surface
[15] = target: Activin A (homodimer of two inhibin βA subunits; R&D Systems, #338-AC) (human) (UniProt P08476); experiment: SPR blocking: 5 nM Activin A + 7.50 nM binder over hActRIIA-hFc surface
[16] = target: Activin A (homodimer of two inhibin βA subunits; R&D Systems, #338-AC) (human) (UniProt P08476); experiment: SPR blocking: 5 nM Activin A + 60 nM binder over hActRIIB-hFc (Control 4) surface
[17] = target: Activin A (homodimer of two inhibin βA subunits; R&D Systems, #338-AC) (human) (UniProt P08476); experiment: SPR blocking: 5 nM Activin A + 0.94 nM binder over hActRIIB-hFc (Control 4) surface
[18] = target: Activin A (homodimer of two inhibin βA subunits; R&D Systems, #338-AC) (human) (UniProt P08476); experiment: SPR blocking: 5 nM Activin A + 15 nM binder over hActRIIB-hFc (Control 4) surface
[19] = target: Activin A (homodimer of two inhibin βA subunits; R&D Systems, #338-AC) (human) (UniProt P08476); experiment: SPR blocking: 5 nM Activin A + 0.94 nM binder over Follistatin-288 surface
[20] = target: Activin A (homodimer of two inhibin βA subunits; R&D Systems, #338-AC) (human) (UniProt P08476); experiment: SPR blocking: 5 nM Activin A + 60 nM binder over hActRIIA-hFc surface
[21] = target: Activin A (homodimer of two inhibin βA subunits; R&D Systems, #338-AC) (human) (UniProt P08476); experiment: SPR blocking: 5 nM Activin A + 1.88 nM binder over Follistatin-288 surface
[22] = target: Activin A (homodimer of two inhibin βA subunits; R&D Systems, #338-AC) (human) (UniProt P08476); experiment: SPR blocking: 5 nM Activin A + 0.00 nM binder over hActRIIA-hFc surface
[23] = target: Activin A (homodimer of two inhibin βA subunits; R&D Systems, #338-AC) (human) (UniProt P08476); experiment: SPR blocking: 5 nM Activin A + 1.88 nM binder over hActRIIB-hFc (Control 4) surface
[24] = target: Activin A (homodimer of two inhibin βA subunits; R&D Systems, #338-AC) (human) (UniProt P08476); experiment: SPR blocking: 5 nM Activin A + 1.88 nM binder over hActRIIA-hFc surface
hBMP4 (human) = hBMP4 (human) (UniProt P12644); experiment: SPR (Biacore 4000), captured on anti-human Fc, 200 nM ligand injected, 37 C
hBMP2 (human) = hBMP2 (human) (UniProt P12643); experiment: as above
Activin AC (human) = Activin AC (human) (UniProt P55103); experiment: as above
hBMP9 (human) = hBMP9 (human) (UniProt Q9UK05); experiment: as above
Activin B (human) = Activin B (human) (UniProt P09529); experiment: as above
hBMP10 (human) = hBMP10 (human) (UniProt O95393); experiment: as above
GDF11 (human) = GDF11 (human) (UniProt O95390); experiment: as above
Activin AB (human) = Activin AB (human) (UniProt P08476); experiment: as above
Activin A (human) [25] = target: Activin A (human) (UniProt P08476); experiment: as above
hBMP6 (human) = hBMP6 (human) (UniProt P22004); experiment: as above
hBMP7 (human) = hBMP7 (human) (UniProt P18075); experiment: as above
GDF8 (human) = GDF8 (human) (UniProt O14793); experiment: as above
Activin A (human) [26] = target: Activin A (human) (UniProt P08476); experiment: Octet cross-competition; binder on sensor tip; 50 nM hActivin A pre-bound with 1 uM H4H10423P (col 4); dark grey box
Activin A (human) [27] = target: Activin A (human) (UniProt P08476); experiment: Octet cross-competition; binder on sensor tip; 50 nM hActivin A mixed with 1 uM Isotype control 12 (-) (col 12); light grey box (self)
Activin A (human) [28] = target: Activin A (human) (UniProt P08476); experiment: Octet cross-competition; binder on sensor tip; 50 nM hActivin A pre-bound with 1 uM Control 3 (col 11); dark grey box
Activin A (human) [29] = target: Activin A (human) (UniProt P08476); experiment: Octet cross-competition; binder on sensor tip; 50 nM hActivin A pre-bound with 1 uM H4H10429P (col 6); dark grey box
Activin A (human) [30] = target: Activin A (human) (UniProt P08476); experiment: Octet cross-competition; binder on sensor tip; 50 nM hActivin A pre-bound with 1 uM H4H10446P2 (col 1); dark grey box
Activin A (human) [31] = target: Activin A (human) (UniProt P08476); experiment: Octet cross-competition; binder on sensor tip; 50 nM hActivin A pre-bound with 1 uM H4H10432P2 (col 7); dark grey box
Activin A (human) [32] = target: Activin A (human) (UniProt P08476); experiment: Octet cross-competition; binder on sensor tip; 50 nM hActivin A pre-bound with 1 uM Control 1 (col 10); dark grey box
Activin A (human) [33] = target: Activin A (human) (UniProt P08476); experiment: Octet cross-competition; binder on sensor tip; 50 nM hActivin A mixed with 1 uM Isotype control 13 (-) (col 13); light grey box (self)

Chain of Activin A (homodimer of two inhibin βA subunits; R&D Systems, #338-AC) (human) (P08476 311-426 limits assumed): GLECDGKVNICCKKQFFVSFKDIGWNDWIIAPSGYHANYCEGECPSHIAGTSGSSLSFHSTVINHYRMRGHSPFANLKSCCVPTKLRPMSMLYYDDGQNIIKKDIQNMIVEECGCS
Chain of Activin A (human) (P08476 311-426 limits assumed): as above
Chain of hBMP9 (human) (Q9UK05 320-429 limits assumed): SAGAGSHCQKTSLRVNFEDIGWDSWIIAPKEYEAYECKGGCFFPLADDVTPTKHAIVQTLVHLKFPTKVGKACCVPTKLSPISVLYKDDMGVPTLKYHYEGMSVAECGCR
Chain of Activin B (human) (P09529 293-407 G326S limits assumed): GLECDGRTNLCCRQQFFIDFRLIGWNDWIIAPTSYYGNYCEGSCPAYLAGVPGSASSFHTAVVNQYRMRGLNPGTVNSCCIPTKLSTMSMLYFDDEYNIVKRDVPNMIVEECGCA
Chain of GDF11 (human) (O95390 299-407 limits assumed): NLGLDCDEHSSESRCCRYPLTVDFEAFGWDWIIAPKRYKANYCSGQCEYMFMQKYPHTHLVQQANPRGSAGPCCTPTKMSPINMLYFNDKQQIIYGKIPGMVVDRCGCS
Chain of hBMP7 (human) (P18075 293-431 limits assumed): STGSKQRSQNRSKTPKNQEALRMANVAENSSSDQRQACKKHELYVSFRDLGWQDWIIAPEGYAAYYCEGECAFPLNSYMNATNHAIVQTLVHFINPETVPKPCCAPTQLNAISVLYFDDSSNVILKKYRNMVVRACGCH
Chain of Activin AC (human) (chain, as listed by the source, chain 1 of 2): as the sequence (P08476 311-426 limits assumed) above
Chain of Activin AC (human) (P55103 237-352, chain 2 of 2): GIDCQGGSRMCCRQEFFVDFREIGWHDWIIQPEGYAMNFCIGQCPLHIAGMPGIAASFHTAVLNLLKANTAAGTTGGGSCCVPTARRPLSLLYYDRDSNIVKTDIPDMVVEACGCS
Chain of Activin AB (human) (P08476 311-426 limits assumed, chain 1 of 2): as the sequence (P08476 311-426 limits assumed) above
Chain of Activin AB (human) (chain, as listed by the source limits assumed, chain 2 of 2): as the sequence (P09529 293-407 G326S limits assumed) above
Chain of hBMP2 (human) (P12643 283-396 limits assumed): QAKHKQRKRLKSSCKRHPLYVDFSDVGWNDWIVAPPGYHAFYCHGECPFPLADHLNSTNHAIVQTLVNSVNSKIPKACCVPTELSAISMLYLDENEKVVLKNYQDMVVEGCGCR
Chain of hBMP4 (human) (P12644 293-408 limits assumed): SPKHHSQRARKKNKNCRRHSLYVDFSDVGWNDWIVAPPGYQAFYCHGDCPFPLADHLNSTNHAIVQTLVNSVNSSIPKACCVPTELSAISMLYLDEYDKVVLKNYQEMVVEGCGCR
Chain of hBMP10 (human) (O95393 317-424 limits assumed): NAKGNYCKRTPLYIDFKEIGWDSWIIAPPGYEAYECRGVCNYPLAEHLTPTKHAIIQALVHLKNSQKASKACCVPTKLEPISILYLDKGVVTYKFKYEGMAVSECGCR
Chain of hBMP6 (human) (P22004 382-513 limits assumed): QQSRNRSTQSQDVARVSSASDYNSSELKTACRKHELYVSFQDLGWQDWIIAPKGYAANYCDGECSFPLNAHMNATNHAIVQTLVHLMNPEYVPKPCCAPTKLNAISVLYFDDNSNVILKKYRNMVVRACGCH

% bound RU w/no inhibitor [1] | % bound RU w/no inhibitor [2] | % bound RU w/no inhibitor [3] | % bound RU w/no inhibitor [4] | % bound RU w/no inhibitor [5] | % bound RU w/no inhibitor [6] | % bound RU w/no inhibitor [7] | % bound RU w/no inhibitor [8] | % bound RU w/no inhibitor [9] | % bound RU w/no inhibitor [10] | % bound RU w/no inhibitor [11] | % bound RU w/no inhibitor [12] | % bound RU w/no inhibitor [13] | % bound RU w/no inhibitor [14] | % bound RU w/no inhibitor [15] | % bound RU w/no inhibitor [16] | % bound RU w/no inhibitor [17] | % bound RU w/no inhibitor [18] | % bound RU w/no inhibitor [19] | % bound RU w/no inhibitor [20] | Substance | other results
145% | 7% | 33% | 100% | 33% | 100% | 1% | 9% | 5% | 1% | 1% | 207% | 139% | 120% | 32% | 2% | 135% | 2% | 172% | 0% | Control 3 (murine anti-Activin A monoclonal antibody from R&D Systems, catalog number MAB3381) | % bound RU w/no inhibitor [21]: 170%; % bound RU w/no inhibitor [22]: 100%; % bound RU w/no inhibitor [23]: 133%; % bound RU w/no inhibitor [24]: 190%
– | – | – | – | – | – | – | – | – | – | – | – | – | – | – | – | – | – | – | – | Isotype Control mAb (antibody) | binding response (resonance units) for 200 nM ligand (hBMP4 (human)): 0.4 RU; binding response (resonance units) for 200 nM ligand (hBMP2 (human)): -1 RU; binding response (resonance units) for 200 nM ligand (Activin AC (human)): -0.1 RU; binding response (resonance units) for 200 nM ligand (hBMP9 (human)): -1 RU; binding response (resonance units) for 200 nM ligand (Activin B (human)): 1.9 RU; binding response (resonance units) for 200 nM ligand (hBMP10 (human)): 0.3 RU; binding response (resonance units) for 200 nM ligand (GDF11 (human)): 3 RU; binding response (resonance units) for 200 nM ligand (Activin AB (human)): -0.1 RU; binding response (resonance units) for 200 nM ligand (Activin A (human) [25]): -0.1 RU; binding response (resonance units) for 200 nM ligand (hBMP6 (human)): 5.1 RU; binding response (resonance units) for 200 nM ligand (hBMP7 (human)): 4.3 RU; binding response (resonance units) for 200 nM ligand (GDF8 (human)): 0.5 RU
– | – | – | – | – | – | – | – | – | – | – | – | – | – | – | – | – | – | – | – | isotype control antibodies (antibody) | binding response (Activin A (human) [26]): 0.18; binding response (Activin A (human) [27]): 0.15; binding response (Activin A (human) [28]): 0.2; binding response (Activin A (human) [29]): 0.22; binding response (Activin A (human) [30]): 0.22; binding response (Activin A (human) [31]): 0.14; binding response (Activin A (human) [32]): 0.26; binding response (Activin A (human) [33]): 0.24
97% | 104% | 107% | 100% | 102% | 100% | 111% | 103% | 102% | 116% | 118% | 109% | 110% | 104% | 115% | 115% | 105% | 110% | 100% | 119% | isotype control antibody (Example 8) | % bound RU w/no inhibitor [21]: 102%; % bound RU w/no inhibitor [22]: 100%; % bound RU w/no inhibitor [23]: 105%; % bound RU w/no inhibitor [24]: 112%
